# Variants at the floor of the assay were thinned out.
# B1: TPR 5TU (parent)
# chain: GGAUCUUCUCGAUCUAACAAAAAAGACAAAUCUGCCACAAAGCUUGAGAGCAUCUUCGGAUGCAGAGGCGGCAGCCUUCGGUGGCGCGAUAGCGCCAACGUUCUCAACUAUGACACGCAAAACGCGUGCUCCGUUGAAUGGAGUUUAUCAUG
# Variants of: B1
# Test: polymerase ribozyme fitness, log enrichment relative to wild type (log ratio); higher = more active; in vitro selection for triplet polymerase activity
# Outline: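 A heterodimeric triplet polymerase ribozyme had each of its subunits mutagenized by PCR into a library, which was transcribed. One round of in vitro selection, done in triplicate, annealed each library with a biotinylated primer, its partner subunit and triplets, then incubated it frozen at −7 °C before gel excision of extended constructs, streptavidin-bead capture and RT-PCR. Fitness is the logarithm of genotype enrichment relative to wild-type enrichment, based on Illumina sequencing of inputs and outputs and inverse-variance-weighted replicate averages. A base-2 logarithm is used, and genotypes were kept only with ≥10 input reads and ≥1 read per output.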
row,Variant,polymerase ribozyme fitness (log ratio)
1,GGAUCUUCUCGAUCUAACAAAAAAGACAAAUCUACCACAAAGCUUGAGAGCAUCUUCGGAUGCAGAGGCGGCAGCCUUCGGUGGAGCGAUAGCGCCAACGUUCUCAACUAUGACACGCAAAACGCGUGCUCCGUUGAAUGGAGUUUAUCAUG [G34A C85A],-3.37
2,GGAUCUUCUCGAUCUAACAAAAAAGACAAAUCUACCACAAAGCUUGAGAGCAUCAUCGGAUGCAGAGGCGGCAGCCUUCGGUGGCGCGAUGGCGCCAACGUUCUCAACUAUGACACUCAAAACGCGUGCUCCGUUGAAUGGAGUUUAUCAUG [G34A U55A A91G G117U],-4.06
3,GGAUCUUCUCGAUCUAACAAAAAAGACAAAUCUCCCACAAAACUUGAGAGCAUCUUCGGAUGCAGAGGCGGCAGCCUUCGGUGGCACGAUAGCGCCAACGUUCUCAACUAUGACACGCAAAACGCGUGCUCCGUUGAAUGGAGUUUACCAUG [G34C G42A G86A U148C],≤ -4.2
4,GGAUCUUCUCGAUCUAACAAAAAAGACAAAUCUCCCACAAAGCUUGAGAGCAUCUUCGGAUGCAGAGGCGGCAGCCUUCGGUAGCGCGAUUGCGCCAACGUCCUCAACUAUUUCACGCAAAACGCGUGCUCCGUUGAAUGGCGUUUAUCAUG [G34C G83A A91U U102C G112U A113U A142C],≤ -4.2
5,GGAUCUUCUCGAUCUAACAAAAAAGACAAAUCGGCCACAAAGGUUGAGAGCAUCUUCGGAUGCAGGGGCGGCAGCCUUCGGUGGCGCGAUAGAGUCAACGUUCUCAACUAUGACACGGAAAACGCGUGCUCCGUUGAAUGGAGUUUAUCAUG [U33G C43G A66G C93A C95U C118G],≤ -4.2
6,GGAUCUUCUCGAUCUAACAAAAAAGACAAAUCGGCCAAUAAGCUUGAGAGCAUCUUCGGAUGCAGAGGCGGCAGCUUUCGGUGGCGCGAUAGCGCCAAUGUUCUCAACUAUGACACGCAAAACGCGUGCUCCGUUGAAUGGAGUUUAUCUUG [U33G C38A A39U C76U C99U A150U],≤ -4.2
7,GGAUCUUCUCGAUCUAACAAAAAAGACAAAUCUCCCACAAAGCUUGAGAGCAUCUUCGGAUGCAGAGGGGGCAGCCUUCGGUGGGGCGAUAGCGCCAACGUUCUAAACUAUGACACGCAAAACGCGUGCUCCGUUGAAUGGAGUUUAUCAUG [G34C C69G C85G C105A],≤ -4.2
8,GGAUCUUCUCGAUCUAACAAAAAAGACAAAUCUACCACAAAGCUUGAGAGCAUCUUCGGAUGCAGAGGCGGCAGCCUUCGGGGGCGCGAUAGCGCAAAGGUUCUCAACUAUGACACGCAAAACGCGUGCUCCGUUGAAUGGAGUUUAUCAUG [G34A U82G C96A C99G],≤ -4.2
9,GGAUCUUCUCGAUCUAACAAAAAAGACAAAUCUACCGCAAAGCUUGAGAGCAUCUUCGGACGCAGAGGCGGCAGCCUUCGGUGGCGCGAUAGCGCCAACGUUCUCAACUAUGACACGCAAAACGCGUGCUCCGUUGAAUGGAGUUUAUCAUG [G34A A37G U61C],≤ -4.2
10,GGAUCUUCUCGAUCUAACAAAAAAGACAAAUCGGCCACAAAGCUUGAGAGCAUAUUCGGAUGCAGAGGCGGCAGCCUUCGGUGGCGCGAUAGCGCAAUCGUUCUCAACUAUGACACGCAAAACGCGUGCUCCGUUGAAUGGAGUUUAUCAUG [U33G C54A C96A A98U],-4.06
11,GGAUCUUCUCGAUCUAACAAAAAAGACAAAUCUCCCACAAAGCUUGAGAGCAUCUUUGGAUGCAGAGGCGGCAGCCUUCCGUGGCGCGAUAGCGCCAACGUUCUCAACUAUGACACGCAAAACGCGUGCUCCGUUGAAUGGAGUUUAUUAUG [G34C C57U G80C C149U],≤ -4.2
12,GGAUCUUCUCGAUCUAACAAAAAAGACAAAUCUCCCACAAAGCUUGAGAGCAUCUUCGGAUGCAGAGGCGGCAGCCUUCGGUGGGGCGAUAGCGCCAACGUUCUCAACUAUGACACGCAAAACGCGUGCUCCGUUGAAUGUAGUUUAUCAUG [G34C C85G G141U],-4.04
13,GGAUCUUCUCGAUCUAACAAAAAAGACAAAUCGGCCACAAAGCUUGAGAGCAUCUUCGGAUGCAGAGGCGGCAGCUUUCGGUGGCGCGAUAGCGCCUACGUUCUCAACUAUGACACGCCAAACGCGUGCUCCGUUGAAUGGAGUUUAUCAUG [U33G C76U A97U A119C],≤ -4.2
14,GGAUCUUCUCGAUCUAACAAAAAAGACAAAUCUACCACAAAGCUUGAGAGCAUCUUCGGAUGCAGAGGCGACAGCCUUCGGUGGCGCCAUCGCGCCAACGUUCUCAACUAUGACACGCAAAACGCGUGCUCCGUUGAAUGGAGUUUAUCAUG [G34A G71A G88C A91C],≤ -4.2
15,GGAUCUUCUCGAUCUAACAAAAAAGACAAAUCUACCACAAAGCUUGAGAGCAUCUUCGGAUGCAGAGGCGGCAGCCAUCGGUGGCGCAAUAGCGCCAACGUUCUCAACUAUGACACGCAAAACGCGUGCUCCGUUGAAUGGAGUUUAUCAUG [G34A U77A G88A],≤ -4.2
16,GGAUCUUCUCGAUCUAACAAAAAAGACAAAUCGGCCACAAAGCUUGAGAGCAUCUUCAGAUGCAGAGGCGGCAGCCUUCGGUGGCACGAUAGCGCCAACGUUCUCAACUAUGACACGCAAAACGCGUGCUCCGUUGAAUGGAGUUUAUCAUG [U33G G58A G86A],-4.02
17,GGAUCUUCUCGAUCUAACAAAAAAGACAAAUCUCCCACAAAGCUUGAGAGCAUCUUCGGAUGCAGAGGCGGCAGCCUUCGGUGGCGCGAUAGUGCCAUCGUUCUCAACUAUGACACGCAAAACGCGUGCUCCGUUGAAUGGAGUUUAUCAUG [G34C C93U A98U],-3.85
18,GGAUCUUCUCGAUCUAACAAAAAAGACAAAUCUACCACAACGCUUGAGAGCAUAAUCGGAUGCAGAGGCGGCAGCCUUCGGUGGCGCGAUAGCGACAACGUUAUCAACUAUGACACGCAAAACGCGUGCUCCGUUGAAUGGAGUUUAUCCUG [G34A A41C C54A U55A C95A C103A A150C],≤ -4.2
19,GGAUCUUCUCGAUCUAACAAAAAAGACAAAUCUACUACAAAGCUUGAGAGCAUCUUCGGCUGCAGAGGCGACAGCCUUCGGUGACGCGAUAGCGCCAACGUUCUCAACUAUGACACGCAAAACGCGUGCUCCGUUGAAUGGAGUUUAUCAUG [G34A C36U A60C G71A G84A],≤ -4.2

# Reference: the RNAGym collection of RNA variant scans (doi:10.1073/pnas.2313332121)
